According to the supplement of paper PMC5998384:

Assays:
[1] = tested on: HeLa Kyoto; assay: solubility in G1/S (NP-40 vs SDS abundance) (log2 ratio); higher = more soluble; settings: cell cycle stage: G1/S
[2] = tested on: HeLa Kyoto; assay: melting temperature (median over replicates), in situ; higher = more thermally stable
[3] = tested on: HeLa Kyoto; assay: solubility change mitosis vs G1/S (difference of NP-40 vs SDS log2 ratios) (log2 ratio difference); higher = more soluble in mitosis
[4] = tested on: HeLa Kyoto; assay: thermal stability score vs G1/S (z-score of summed log2 fold changes over temperatures); higher = more thermally stable than in G1/S
[5] = cell cycle stage: early G1 (4.5 h after nocodazole release)
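Wherever melting temperature (median over replicates), in situ is given: HeLa Kyoto cells synchronized by double thymidine or nocodazole block, proteins quantified by TMT10plex mass spectrometry, three independent biological replicates.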
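Wherever solubility change mitosis vs G1/S (difference of NP-40 vs SDS log2 ratios) is given: synchronized HeLa Kyoto cells (double thymidine block for G1/S, nocodazole release for mitosis), protein amounts in NP-40 versus SDS lysates quantified by mass spectrometry, three biological replicates.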
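Wherever solubility in G1/S (NP-40 vs SDS abundance) is given: HeLa Kyoto cells arrested at G1/S by double thymidine block, proteins quantified by TMT10plex mass spectrometry in mild NP-40 versus SDS extracts, three biological replicates.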
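Wherever thermal stability score vs G1/S (z-score of summed log2 fold changes over temperatures) is given: synchronized HeLa Kyoto cells, proteins quantified by TMT10plex mass spectrometry, three biological replicates, mitosis taken 0.5 h after nocodazole release, G1/S directly after double thymidine block.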

With “MAAPAQPKKIVAPTVSQINAEFVTQLACKYWAPHIKKKSPFDIKVIEDIYEKEIVKSRFAIRKIMLLEFSQYLENYLWMNYSPEVSSKAYLMSICCMVNEKFRENVPAWEIFKKKPDHFPFFFKHILKAALAETDGEFSLHEQTVLLLFLDHCFNSLEVDLIRSQVQQLISLPMWMGLQLARLELELKKTPKLRKFWNLIKKNDEKMDPEAREQAYQERRFLSQLIQKFISVLKSVPLSEPVTMDKVHYCERFIELMIDLEALLPTRRWFNTILDDSHLLVHCYLSNLVRREEDGHLFSQLLDMLKFYTGFEINDQTGNALTENEMTTIHYDRITSLQRAAFAHFPELYDFALSNVAEVDTRESLVKFFGPLSSNTLHQVASYLCLLPTLPKNEDTTFDKEFLLELLVSRHERRISQIQQLNQMPLYPTEKIIWDENIVPTEYYSGEGCLALPKLNLQFLTLHDYLLRNFNLFRLESTYEIRQDIEDSVSRMKPWQSEYGGVVFGGWARMAQPIVAFTVVEVAKPNIGENWPTRVRADVTINLNVRDHIKDEWEGLRKHDVCFLITVRPTKPYGTKFDRRRPFIEQVGLVYVRGCEIQGMLDDKGRVIEDGPEPRPNLRGESRTFRVFLDPNQYQQDMTNTIQNGAEDVYETFNIIMRRKPKENNFKAVLETIRNLMNTDCVVPDWLHDIILGYGDPSSAHYSKMPNQIATLDFNDTFLSIEHLKASFPGHNVKVTVEDPALQIPPFRITFPVRSGKGKKRKDADVEDEDTEEAKTLIVEPHVIPNRGPYPYNQPKRNTIQFTHTQIEAIRAGMQPGLTMVVGPPGTGKTDVAVQIISNIYHNFPEQRTLIVTHSNQALNQLFEKIMALDIDERHLLRLGHGEEELETEKDFSRYGRVNYVLARRIELLEEVKRLQKSLGVPGDASYTCETAGYFFLYQVMSRWEEYISKVKNKGSTLPDVTEVSTFFPFHEYFANAPQPIFKGRSYEEDMEIAEGCFRHIKKIFTQLEEFRASELLRSGLDRSKYLLVKEAKIIAMTCTHAALKRHDLVKLGFKYDNILMEEAAQILEIETFIPLLLQNPQDGFSRLKRWIMIGDHHQLPPVIKNMAFQKYSNMEQSLFTRFVRVGVPTVDLDAQGRARASLCNLYNWRYKNLGNLPHVQLLPEFSTANAGLLYDFQLINVEDFQGVGESEPNPYFYQNLGEAEYVVALFMYMCLLGYPADKISILTTYNGQKHLIRDIINRRCGNNPLIGRPNKVTTVDRFQGQQNDYILLSLVRTRAVGHLRDVRRLVVAMSRARLGLYIFARVSLFQNCFELTPAFSQLTARPLHLHIIPTEPFPTTRKNGERPSHEVQIIKNMPQMANFVYNMYMHLIQTTHHYHQTLLQLPPAMVEEGEEVQNQETELETEEEAMTVQADIIPSPTDTSCRQETPAFQTDTTPSETGATSTPEAIPALSETTPTVVGAVSAPAEANTPQDATSAPEETK [AQR]” the “solubility in G1/S (log2)” value [1] was -0.435, the melting temperature ([2]; cell cycle stage: G1/S) was 48 °C and the melting temperature ([2]; cell cycle stage: mitosis) was 50 °C. The “solubility change mitosis (log2)” value [3] was 0.0502, the thermal stability score [4, 5] was 0.352 and the thermal stability score ([4]; cell cycle stage: mitosis) was 2.51.

“MAWTKYQLFLAGLMLVTGSINTLSAKWADNFMAEGCGGSKEHSFQHPFLQAVGMFLGEFSCLAAFYLLRCRAAGQSDSSVDPQQPFNPLLFLPPALCDMTGTSLMYVALNMTSASSFQMLRGAVIIFTGLFSVAFLGRRLVLSQWLGILATIAGLVVVGLADLLSKHDSQHKLSEVITGDLLIIMAQIIVAIQMVLEEKFVYKHNVHPLRAVGTEGLFGFVILSLLLVPMYYIPAGSFSGNPRGTLEDALDAFCQVGQQPLIAVALLGNISSIAFFNFAGISVTKELSATTRMVLDSLRTVVIWALSLALGWEAFHALQILGFLILLIGTALYNGLHRPLLGRLSRGRPLAEESEQERLLGGTRTPINDAS [SLC35F6]” was tested, and the “solubility in G1/S (log2)” value [1] was -0.144, the melting temperature ([2]; cell cycle stage: G1/S) was 60.1 °C and the melting temperature ([2]; cell cycle stage: mitosis) was 56 °C. For the same sequence, the “solubility change mitosis (log2)” value [3] was -0.0109, the thermal stability score [4, 5] was -2.27 and the thermal stability score ([4]; cell cycle stage: mitosis) was -5.04.

With “MNNSGADEIGKLFVGGLDWSTTQETLRSYFSQYGEVVDCVIMKDKTTNQSRGFGFVKFKDPNCVGTVLASRPHTLDGRNIDPKPCTPRGMQPERTRPKEGWQKGPRSDNSKSNKIFVGGIPHNCGETELREYFKKFGVVTEVVMIYDAEKQRPRGFGFITFEDEQSVDQAVNMHFHDIMGKKVEVKRAEPRDSKSQAPGQPGASQWGSRVVPNAANGWAGQPPPTWQQGYGPQGMWVPAGQAIGGYGPPPAGRGAPPPPPPFTSYIVSTPPGGFPPPQGFPQGYGAPPQFSFGYGPPPPPPDQFAPPGVPPPPATPGAAPLAFPPPPSQAAPDMSKPPTAQPDFPYGQYAGYGQDLSGFGQGFSDPSQQPPSYGGPSVPGSGGPPAGGSGFGRGQNHNVQGFHPYRR [DAZAP1]” the “solubility in G1/S (log2)” value [1] was 0.412, the melting temperature ([2]; cell cycle stage: G1/S) was 53.6 °C and the melting temperature ([2]; cell cycle stage: mitosis) was 53.7 °C. The “solubility change mitosis (log2)” value [3] was -0.0921, the thermal stability score [4, 5] was -1.35 and the thermal stability score ([4]; cell cycle stage: mitosis) was -1.24.

“MDWVMKHNGPNDASDGTVRLRGLPFGCSKEEIVQFFQGLEIVPNGITLTMDYQGRSTGEAFVQFASKEIAENALGKHKERIGHRYIEIFRSSRSEIKGFYDPPRRLLGQRPGPYDRPIGGRGGYYGAGRGSMYDRMRRGGDGYDGGYGGFDDYGGYNNYGYGNDGFDDRMRDGRGMGGHGYGGAGDASSGFHGGHFVHMRGLPFRATENDIANFFSPLNPIRVHIDIGADGRATGEADVEFVTHEDAVAAMSKDKNNMQHRYIELFLNSTPGGGSGMGGSGMGGYGRDGMDNQGGYGSVGRMGMGNNYSGGYGTPDGLGGYGRGGGGSGGYYGQGGMSGGGWRGMY [HNRNPH3]” was tested, and the “solubility in G1/S (log2)” value [1] was -0.0906, the melting temperature ([2]; cell cycle stage: G1/S) was 45.4 °C and the melting temperature ([2]; cell cycle stage: mitosis) was 47.7 °C. For the same sequence, the “solubility change mitosis (log2)” value [3] was 0.282, the thermal stability score [4, 5] was 3.81 and the thermal stability score ([4]; cell cycle stage: mitosis) was 9.58.

“MDNQCTVQVRLELGHRAQLRKKPTTEGFTHDWMVFVRGPEQCDIQHFVEKVVFWLHDSFPKPRRVCKEPPYKVEESGYAGFIMPIEVHFKNKEEPRKVCFTYDLFLNLEGNPPVNHLRCEKLTFNNPTTEFRYKLLRAGGVMVMPEGADTVSRPSPDYPMLPTIPLSAFSDPKKTKPSHGSKDANKESSKTSKPHKVTKEHRERPRKDSESKSSSKELEREQAKSSKDTSRKLGEGRLPKEEKAPPPKAAFKEPKMALKETKLESTSPKGGPPPPPPPPPRASSKRPATADSPKPSAKKQKKSSSKGSRSAPGTSPRTSSSSSFSDKKPAKDKSSTRGEKVKAESEPREAKKALEVEESNSEDEASFKSESAQSSPSNSSSSSDSSSDSDFEPSQNHSQGPLRSMVEDLQSEESDEDDSSSGEEAAGKTNPGRDSRLSFSDSESDNSADSSLPSREPPPPQKPPPPNSKVSGRRSPESCSKPEKILKKGTYDKAYTDELVELHRRLMALRERNVLQQIVNLIEETGHFNVTNTTFDFDLFSLDETTVRKLQSCLEAVAT [MLLT1]” was tested, and the “solubility in G1/S (log2)” value [1] was -0.205, the melting temperature ([2]; cell cycle stage: G1/S) was 50.5 °C and the melting temperature ([2]; cell cycle stage: mitosis) was 53 °C. For the same sequence, the “solubility change mitosis (log2)” value [3] was 0.264, the thermal stability score [4, 5] was -0.27 and the thermal stability score ([4]; cell cycle stage: mitosis) was 0.333.

With “MGLETEKADVQLFMDDDSYSHHSGLEYADPEKFADSDQDRDPHRLNSHLKLGFEDVIAEPVTTHSFDKVWICSHALFEISKYVMYKFLTVFLAIPLAFIAGILFATLSCLHIWILMPFVKTCLMVLPSVQTIWKSVTDVIIAPLCTSVGRCFSSVSLQLSQD [CAV2]” the “solubility in G1/S (log2)” value [1] was -0.178, the melting temperature ([2]; cell cycle stage: G1/S) was 56.1 °C and the melting temperature ([2]; cell cycle stage: mitosis) was 56.9 °C. For the same sequence, the “solubility change mitosis (log2)” value [3] was -0.0267, the thermal stability score [4, 5] was -1.45 and the thermal stability score ([4]; cell cycle stage: mitosis) was -2.03.

In the case of “MSVLLRSGLGPLCAVARAAIPFIWRGKYFSSGNEPAENPVTPMLRHLMYKIKSTGPITVAEYMKEVLTNPAKGYYVYRDMLGEKGDFITSPEISQIFGELLGIWFISEWMATGKSTAFQLVELGPGRGTLVGDILRVFTQLGSVLKNCDISVHLVEVSQKLSEIQALTLTKEKVPLERNAGSPVYMKGVTKSGIPISWYRDLHDVPKGYSFYLAHEFFDVLPVHKFQKTPQGWREVFVDIDPQVSDKLRFVLAPSATPAEAFIQHDETRDHVEVCPDAGVIIEELSQRIALTGGAALVADYGHDGTKTDTFRGFCDHKLHDVLIAPGTADLTADVDFSYLRRMAQGKVASLGPIKQHTFLKNMGIDVRLKVLLDKSNEPSVRQQLLQGYDMLMNPKKMGERFNFFALLPHQRLQGGRYQRNARQSKPFASVVAGFSELAWQ [NDUFAF7]”, the “solubility in G1/S (log2)” value [1] is reported as 0.278, the melting temperature ([2]; cell cycle stage: G1/S) is reported as 49.2 °C and the melting temperature ([2]; cell cycle stage: mitosis) is reported as 49 °C. For the same sequence, the “solubility change mitosis (log2)” value [3] was -0.162, the thermal stability score [4, 5] was 0.103 and the thermal stability score ([4]; cell cycle stage: mitosis) was 1.08.

With “MKYILVTGGVISGIGKGIIASSIGTILKSCGLRVTAIKIDPYINIDAGTFSPYEHGEVFVLNDGGEVDLDLGNYERFLDINLYKDNNITTGKIYQHVINKERRGDYLGKTVQVVPHITDAVQEWVMNQAKVPVDGNKEEPQICVIELGGTIGDIEGMPFVEAFRQFQFKAKRENFCNIHVSLVPQLSATGEQKTKPTQNSVRALRGLGLSPDLIVCRSSTPIEMAVKEKISMFCHVNPEQVICIHDVSSTYRVPVLLEEQSIVKYFKERLHLPIGDSASNLLFKWRNMADRYERLQKICSIALVGKYTKLRDCYASVFKALEHSALAINHKLNLMYIDSIDLEKITETEDPVKFHEAWQKLCKADGILVPGGFGIRGTLGKLQAISWARTKKIPFLGVCLGMQLAVIEFARNCLNLKDADSTEFRPNAPVPLVIDMPEHNPGNLGGTMRLGIRRTVFKTENSILRKLYGDVPFIEERHRHRFEVNPNLIKQFEQNDLSFVGQDVDGDRMEIIELANHPYFVGVQFHPEFSSRPMKPSPPYLGLLLAATGNLNAYLQQGCKLSSSDRYSDASDDSFSEPRIAELEIS [CTPS2]” the “solubility in G1/S (log2)” value [1] was 0.0287, the melting temperature ([2]; cell cycle stage: G1/S) was 57.1 °C and the melting temperature ([2]; cell cycle stage: mitosis) was 57.2 °C. For the same sequence, the “solubility change mitosis (log2)” value [3] was -0.0719, the thermal stability score [4, 5] was -2.15 and the thermal stability score ([4]; cell cycle stage: mitosis) was -1.98.

With “MAATELRGVVGPGPAAIAALGGGGAGPPVVGGGGGRGDAGPGSGAASGTVVAAAAGGPGPGAGGVAAAGPAPAPPTGGSGGSGAGGSGSAREGWLFKWTNYIKGYQRRWFVLSNGLLSYYRSKAEMRHTCRGTINLATANITVEDSCNFIISNGGAQTYHLKASSEVERQRWVTALELAKAKAVKMLAESDESGDEESVSQTDKTELQNTLRTLSSKVEDLSTCNDLIAKHGTALQRSLSELESLKLPAESNEKIKQVNERATLFRITSNAMINACRDFLMLAQTHSKKWQKSLQYERDQRIRLEETLEQLAKQHNHLERAFRGATVLPANTPGNVGSGKDQCCSGKGDMSDEDDENEFFDAPEIITMPENLGHKRTGSNISGASSDISLDEQYKHQLEETKKEKRTRIPYKPNYSLNLWSIMKNCIGKELSKIPMPVNFNEPLSMLQRLTEDLEYHELLDRAAKCENSLEQLCYVAAFTVSSYSTTVFRTSKPFNPLLGETFELDRLEENGYRSLCEQVSHHPPAAAHHAESKNGWTLRQEIKITSKFRGKYLSIMPLGTIHCIFHATGHHYTWKKVTTTVHNIIVGKLWIDQSGEIDIVNHKTGDKCNLKFVPYSYFSRDVARKVTGEVTDPSGKVHFALLGTWDEKMECFKVQPVIGENGGDARQRGHEAEESRVMLWKRNPLPKNAENMYYFSELALTLNAWESGTAPTDSRLRPDQRLMENGRWDEANAEKQRLEEKQRLSRKKREAEAMKATEDGTPYDPYKALWFERKKDPVTKELTHIYRGEYWECKEKQDWSSCPDIF [OSBP]” the “solubility in G1/S (log2)” value [1] was -0.0183, the melting temperature ([2]; cell cycle stage: G1/S) was 52.1 °C and the melting temperature ([2]; cell cycle stage: mitosis) was 51.9 °C. For the same sequence, the “solubility change mitosis (log2)” value [3] was -0.212, the thermal stability score [4, 5] was -1.23 and the thermal stability score ([4]; cell cycle stage: mitosis) was -0.683.
